The values below come from patent US20230087785A1, “Leucine-Rich Repeat Kinase 2 Allosteric Modulators” (VIB VZW, priority 2020, published 2023).

The target of assay [1] is T1, endogenous LRRK2 (Mus musculus, UniProt Q5S006).
T1 construct: endogenous in cells; host or cells: RAW264.7
The assay is described as follows: Colocalization of GFP-Nbs with endogenous LRRK2 on zymosan-containing phagosomes in RAW264.7 cells. Type of assay: cell-based. The note with it: RAW264.7 cells transfected with GFP-Nbs, zymosan 30 mins, fixed cells.

The target of assay [2] is T2, LRRK2 (Homo sapiens, UniProt Q5S007, M2397T/R50H).
T2 construct: Full-length human LRRK2 was expressed and purified based on previously developed protocols; SF tag (FLAG-tag + Twin-Strep-tag); made in house; host or cells: HEK 293T
Description: Determination of kinase inhibition mechanism (Michaelis-Menten curves at varying ATP). Type of assay: biochemical. The note with it: for mechanism of inhibition vis-a-vis ATP as substrate: Lineweaver-Burk plot and global fit; for α-value: global fit, mixed inhibition model, 10 μM AQT0615, varying ATP. The protocol:
FIGS. 11A-11C, Dose-response curves (upper panels) for the inhibition of the in vitro LRRK2 kinase activity by the group1 Nbs: Nb1 (FIG. 11A), Nb6 (FIG. 11B) and Nb23 (FIG. 11C), where the Nb concentration was varied from 200 or 150 μM to 0.006 μM in a two-fold serial dilution. The two lower panels show the Michaelis-Menten curves obtained for LRRK2 at varying concentrations of ATP and a fixed (sub-saturating) concentration of peptide substrate (AQT0615), and at varying concentrations of Nb1 (FIG. 11A), Nb6 (FIG. 11B) and Nb23 (FIG. 11C), and the corresponding linearizations according to the Lineweaver-Burk method (double-reciprocal plot). The Nb concentrations used are indicated below the plots. Each datapoint reflects the average (±SD) of three independent measurements.
To further confirm this, we set out to determine the mechanism of inhibition (competitive vs. uncompetitive vs. mixed/non-competitive) of these three Nbs vis-h-vis ATP as substrate, using our peptide phosphorylation assays as output. To this end, full Michaelis-Menten curves were obtained at a fixed (probably sub-saturating) concentration of peptide substrate (10 μM) and varying concentrations of ATP (FIGS. 11A-11C). […] This confirms that these Nbs are not competing with ATP for binding and that they inhibit the reaction by binding on an allosteric site, which is in agreement with the ELISA and CL-MS epitope mapping data. […] For CA12618, fitting on the same model yields a Kic^app of 5±1 μM with an α-value of 1.6±0.4, corresponding a Kic^app of 5 μM and a Kic^app of […]. For the kinase domain-binding CA13612, the linearized curves intersect closer to the Y-axis indicating a mechanism which is more ATP-competitive like. […] Fitting on a mixed inhibition model for CA13612 gives a Kic^app of 9±1 μM with an α-value of 7.5±1.9, corresponding a Kic^app of 9 μM and a Kic^app of 66 μM.
To determine the mechanism of inhibition and apparent Ki (Ki^app) values of CA12610, CA12618, CA13612 the PhosphoSens® Protein Kinase Assay (AssayQuant Technologies Inc.) in combination with the AQT0615 peptide substrate was used. Full Michaelis-Menten curves (relative velocity versus [ATP]) in presence of different Nb concentrations were collected at 30° C. in a buffer consisting of 50 mM HEPES pH 7.5, 0.1% Brij-35, 50 mM NaCl, 10 mM MgCl2 and […], using a fixed concentration of AQT0615 (10 μM) and varying concentrations of ATP. The LRRK2 concentration was chosen such that initial rates (linear fluorescence versus time curves) were obtained, and LRRK2, ATP and the Nbs were preincubated at 4° C. for 30 min prior to starting the reaction by adding the peptide substrate. The Michaelis-Menten curves for the different Nb concentrations were globally fit on a mixed-inhibition model using GraphPad Prism, according to the equation:
(with Kic^app=Ki^app and Ki^app−a·Ki^app)
Additionally, as a diagnostic tool, Michaelis-Menten curves were linearized using the Lineweaver-Burk (double reciprocal) plot.

T2 sequence (Q5S007 whole entry R50H/M2397T): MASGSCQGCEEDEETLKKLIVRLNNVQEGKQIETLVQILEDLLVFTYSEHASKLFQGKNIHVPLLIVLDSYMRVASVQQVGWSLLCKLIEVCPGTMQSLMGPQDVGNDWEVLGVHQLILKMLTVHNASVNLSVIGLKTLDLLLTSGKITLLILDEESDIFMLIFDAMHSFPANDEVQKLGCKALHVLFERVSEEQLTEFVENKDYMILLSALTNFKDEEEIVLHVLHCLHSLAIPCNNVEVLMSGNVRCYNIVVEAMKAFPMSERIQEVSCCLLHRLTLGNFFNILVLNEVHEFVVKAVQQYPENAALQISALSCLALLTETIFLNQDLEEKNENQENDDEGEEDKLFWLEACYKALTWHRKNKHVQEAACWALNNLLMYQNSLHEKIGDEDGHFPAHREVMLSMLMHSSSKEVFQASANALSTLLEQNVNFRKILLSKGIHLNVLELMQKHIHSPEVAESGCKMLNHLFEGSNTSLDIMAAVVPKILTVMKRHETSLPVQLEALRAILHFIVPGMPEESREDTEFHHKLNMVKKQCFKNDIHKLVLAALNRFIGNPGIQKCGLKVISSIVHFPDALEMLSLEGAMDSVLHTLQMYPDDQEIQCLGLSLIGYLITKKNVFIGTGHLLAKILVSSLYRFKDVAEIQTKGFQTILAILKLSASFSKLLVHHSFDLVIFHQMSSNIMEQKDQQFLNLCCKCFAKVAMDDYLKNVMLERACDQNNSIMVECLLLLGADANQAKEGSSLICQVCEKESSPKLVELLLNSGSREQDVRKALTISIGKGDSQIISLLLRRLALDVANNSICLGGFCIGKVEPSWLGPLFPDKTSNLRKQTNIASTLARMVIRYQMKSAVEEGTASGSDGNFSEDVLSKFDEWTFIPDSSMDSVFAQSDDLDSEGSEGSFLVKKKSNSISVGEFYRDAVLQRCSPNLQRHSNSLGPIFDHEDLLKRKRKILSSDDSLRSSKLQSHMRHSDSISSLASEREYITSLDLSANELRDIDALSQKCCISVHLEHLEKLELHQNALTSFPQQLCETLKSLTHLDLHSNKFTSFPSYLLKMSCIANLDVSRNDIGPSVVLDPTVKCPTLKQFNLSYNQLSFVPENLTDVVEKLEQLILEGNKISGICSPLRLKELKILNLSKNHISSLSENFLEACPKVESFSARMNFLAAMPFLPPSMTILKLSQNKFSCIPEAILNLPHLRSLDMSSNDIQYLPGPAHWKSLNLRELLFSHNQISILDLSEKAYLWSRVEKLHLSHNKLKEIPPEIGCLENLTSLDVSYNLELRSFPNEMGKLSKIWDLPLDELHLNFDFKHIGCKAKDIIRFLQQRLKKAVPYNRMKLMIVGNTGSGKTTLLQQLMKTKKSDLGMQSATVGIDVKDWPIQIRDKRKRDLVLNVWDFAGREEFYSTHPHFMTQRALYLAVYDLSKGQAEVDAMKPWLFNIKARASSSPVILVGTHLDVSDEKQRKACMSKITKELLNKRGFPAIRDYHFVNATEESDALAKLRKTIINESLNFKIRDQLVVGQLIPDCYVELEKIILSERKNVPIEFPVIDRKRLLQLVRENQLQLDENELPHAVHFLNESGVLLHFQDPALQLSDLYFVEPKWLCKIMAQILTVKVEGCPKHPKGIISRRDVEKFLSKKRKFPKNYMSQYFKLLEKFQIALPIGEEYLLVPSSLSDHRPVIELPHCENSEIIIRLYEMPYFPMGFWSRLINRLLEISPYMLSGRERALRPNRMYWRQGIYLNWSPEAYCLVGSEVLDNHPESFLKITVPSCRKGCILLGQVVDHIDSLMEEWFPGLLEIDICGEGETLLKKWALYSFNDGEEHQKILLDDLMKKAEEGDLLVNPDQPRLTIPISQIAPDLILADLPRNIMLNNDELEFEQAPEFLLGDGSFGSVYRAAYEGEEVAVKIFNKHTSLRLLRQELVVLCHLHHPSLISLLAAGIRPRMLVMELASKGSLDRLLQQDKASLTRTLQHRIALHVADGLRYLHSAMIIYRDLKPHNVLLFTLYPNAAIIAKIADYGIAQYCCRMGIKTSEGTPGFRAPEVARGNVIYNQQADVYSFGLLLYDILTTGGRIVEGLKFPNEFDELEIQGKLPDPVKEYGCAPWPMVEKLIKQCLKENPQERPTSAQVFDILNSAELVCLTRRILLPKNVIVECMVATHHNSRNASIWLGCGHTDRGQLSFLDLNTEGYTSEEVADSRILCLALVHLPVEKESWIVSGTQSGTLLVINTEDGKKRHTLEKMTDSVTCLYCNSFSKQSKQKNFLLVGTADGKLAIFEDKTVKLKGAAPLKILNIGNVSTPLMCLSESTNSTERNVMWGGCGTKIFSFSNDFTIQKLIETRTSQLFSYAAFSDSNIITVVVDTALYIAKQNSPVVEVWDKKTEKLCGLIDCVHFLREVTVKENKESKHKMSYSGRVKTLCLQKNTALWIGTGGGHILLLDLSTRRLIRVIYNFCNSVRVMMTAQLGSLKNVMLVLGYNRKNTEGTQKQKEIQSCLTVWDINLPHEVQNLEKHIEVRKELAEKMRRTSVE
T1 sequence (Q5S006 whole entry): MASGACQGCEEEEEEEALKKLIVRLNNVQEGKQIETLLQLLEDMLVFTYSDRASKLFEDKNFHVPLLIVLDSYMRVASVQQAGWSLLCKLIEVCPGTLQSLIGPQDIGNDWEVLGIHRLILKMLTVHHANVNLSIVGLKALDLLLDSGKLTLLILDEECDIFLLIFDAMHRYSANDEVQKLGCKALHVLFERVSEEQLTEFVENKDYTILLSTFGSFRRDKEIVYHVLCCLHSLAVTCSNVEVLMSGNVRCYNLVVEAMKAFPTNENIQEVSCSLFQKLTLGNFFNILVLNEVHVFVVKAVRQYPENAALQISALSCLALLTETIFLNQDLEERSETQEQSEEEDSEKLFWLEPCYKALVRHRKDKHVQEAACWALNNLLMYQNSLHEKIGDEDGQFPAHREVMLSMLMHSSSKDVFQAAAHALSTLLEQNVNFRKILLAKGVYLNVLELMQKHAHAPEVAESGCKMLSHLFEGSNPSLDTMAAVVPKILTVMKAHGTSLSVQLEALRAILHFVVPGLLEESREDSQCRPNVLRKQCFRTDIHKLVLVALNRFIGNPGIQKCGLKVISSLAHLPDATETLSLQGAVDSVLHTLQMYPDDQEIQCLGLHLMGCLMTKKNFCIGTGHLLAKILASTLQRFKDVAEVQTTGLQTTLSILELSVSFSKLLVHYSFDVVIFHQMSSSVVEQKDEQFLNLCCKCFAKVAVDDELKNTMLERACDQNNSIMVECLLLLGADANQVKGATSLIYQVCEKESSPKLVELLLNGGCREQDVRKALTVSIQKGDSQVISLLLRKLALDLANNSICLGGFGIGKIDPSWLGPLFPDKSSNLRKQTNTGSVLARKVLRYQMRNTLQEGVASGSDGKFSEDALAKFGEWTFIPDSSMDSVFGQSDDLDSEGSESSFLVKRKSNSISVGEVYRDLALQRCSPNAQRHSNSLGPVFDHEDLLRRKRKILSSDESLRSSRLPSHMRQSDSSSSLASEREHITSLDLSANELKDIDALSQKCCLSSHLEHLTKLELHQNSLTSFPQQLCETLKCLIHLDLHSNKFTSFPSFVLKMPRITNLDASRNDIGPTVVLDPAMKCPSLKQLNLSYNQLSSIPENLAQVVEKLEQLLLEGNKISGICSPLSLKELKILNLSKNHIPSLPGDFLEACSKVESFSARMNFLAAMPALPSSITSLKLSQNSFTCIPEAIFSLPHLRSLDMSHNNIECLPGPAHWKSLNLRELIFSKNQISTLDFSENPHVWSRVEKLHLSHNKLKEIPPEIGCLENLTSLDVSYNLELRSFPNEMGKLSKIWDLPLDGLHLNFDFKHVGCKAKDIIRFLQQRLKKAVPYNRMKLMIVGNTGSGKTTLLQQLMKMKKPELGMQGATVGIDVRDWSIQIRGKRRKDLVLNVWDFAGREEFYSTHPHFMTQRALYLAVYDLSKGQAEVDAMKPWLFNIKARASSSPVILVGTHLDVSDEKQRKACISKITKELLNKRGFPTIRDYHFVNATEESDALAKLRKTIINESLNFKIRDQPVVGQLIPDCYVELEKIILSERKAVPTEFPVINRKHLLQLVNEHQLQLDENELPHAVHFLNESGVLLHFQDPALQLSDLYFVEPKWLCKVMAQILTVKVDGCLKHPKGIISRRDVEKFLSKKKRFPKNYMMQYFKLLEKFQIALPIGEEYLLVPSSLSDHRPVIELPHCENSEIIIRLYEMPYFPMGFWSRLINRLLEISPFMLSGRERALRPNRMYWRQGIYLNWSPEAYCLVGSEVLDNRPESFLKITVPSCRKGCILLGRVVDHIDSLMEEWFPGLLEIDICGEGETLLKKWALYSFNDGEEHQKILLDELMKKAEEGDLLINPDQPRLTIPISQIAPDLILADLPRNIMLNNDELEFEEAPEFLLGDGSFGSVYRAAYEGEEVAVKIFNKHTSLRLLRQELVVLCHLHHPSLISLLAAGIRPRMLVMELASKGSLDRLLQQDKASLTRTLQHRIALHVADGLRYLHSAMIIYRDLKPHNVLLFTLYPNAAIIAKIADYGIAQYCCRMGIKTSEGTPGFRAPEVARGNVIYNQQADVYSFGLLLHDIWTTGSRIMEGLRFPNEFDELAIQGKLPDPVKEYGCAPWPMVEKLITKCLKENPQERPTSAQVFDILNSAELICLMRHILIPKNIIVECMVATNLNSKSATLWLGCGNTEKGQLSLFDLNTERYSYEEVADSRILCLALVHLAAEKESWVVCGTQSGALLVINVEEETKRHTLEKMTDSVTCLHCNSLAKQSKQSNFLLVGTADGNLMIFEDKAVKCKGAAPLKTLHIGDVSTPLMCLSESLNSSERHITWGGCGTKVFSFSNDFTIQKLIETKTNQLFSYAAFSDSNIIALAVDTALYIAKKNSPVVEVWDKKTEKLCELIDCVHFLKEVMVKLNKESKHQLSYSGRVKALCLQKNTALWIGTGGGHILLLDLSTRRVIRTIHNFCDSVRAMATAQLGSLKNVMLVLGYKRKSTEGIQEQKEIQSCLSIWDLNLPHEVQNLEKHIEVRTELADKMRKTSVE

B1: Nb22: LRRK2-specific Nanobody, SEQ ID NO: 9 (protein)
VHH: MAQVQLVESGGGLVQAGGSLRLSCAASGRTFSSYTMGWFRQAPGKEREFVAAIRWSGGSTYYADSVKGRFTISRDNAKNTVYLQMNSLKPEDTAVYYCAASDRGGFIATSGGWMDYWGKGTQVTVSS
modifications: Nanobody CA13611
Consider B1, for which the “colocalization with endogenous LRRK2 on phagosomes” value (shortened to “colocalization”) in assay [1] is “clearly colocalized with LRRK2 on zymosan-containing phagosomes”.

B2: Nb23: LRRK2-specific Nanobody, SEQ ID NO: 3 (protein)
VHH: MAQVQLVESGGGLVQAGGSLRLSCAASGRTFSRYTMGWFRQAPGKDREFVARITTSGAVTTYADSAKGRFTISRDNAKNTVYLQMNTLKPEDTAVYYCAAGQGQLSSQSRFVDYWGQGTQVTVSS
modifications: Nanobody CA13612
As to B2, the “colocalization” value in assay [1] was “clearly colocalized with LRRK2 on zymosan-containing phagosomes”. For the same molecule, in assay [2], the “mechanism of inhibition vis-a-vis ATP as substrate” value is given as “mixed-inhibition mechanism” and the α-value is recorded as 7.5±1.9.

B3: Nb6: LRRK2-specific Nanobody, SEQ ID NO: 2 (protein)
VHH: MAQVQLVESGGGLVQAGGSLRLSCAASGSIFSPTAMGWYRQAPGKERELVAGITSGGYTNYRNFARGRFTISRDNAKKTVYLQMNSLNPEDTAVYYCNTLTISWSWGQGTQVTVSS
modifications: Nanobody CA12618
On to B3, for which the “colocalization” value in assay [1] is recorded as “LRRK2 recruitment to phagosomes was slightly detectable”. In assay [2], the “mechanism of inhibition vis-a-vis ATP as substrate” value is “mixed-type inhibition” and the α-value was determined as 1.6±0.4.

B4: Nb42: LRRK2-specific Nanobody, SEQ ID NO: 6 (protein)
VHH: MAQVQLVESGGGLVQAGGSLRLSCAASGDVNYAVGWFRQAPRKEREFVAAINWRGDNTDYTDSVKGRFTISRDNAKNTVYLQMNSLKPEDTAVYYCAAKSAPYWYSDIAPDYWGQGTQVTVSS
modifications: Nanobody CA14259
Consider B4, for which the “colocalization” value in assay [1] was “did not colocalize with endogenous LRRK2”.

B5: Nb1: LRRK2-specific Nanobody, SEQ ID NO: 1 (protein)
VHH: MAQVQLVESGGGLVQAGGSLRLSCVASGRIFSGNAMGWYRQAPGRQRELVAGITNGGYTNYRQFVKGRFTISRDNAKRTVYLQMNSLKPEDTAVYYCNALDREARQVDYWGQGTQVTVSS
modifications: Nanobody CA12610
Turning to B5, the “colocalization” value in assay [1] was “LRRK2 recruitment to phagosomes was slightly detectable”. Further, in assay [2], the “mechanism of inhibition vis-a-vis ATP as substrate” value is reported as “mixed-type inhibition” and the α-value was 1.8±0.5.
